Values quoted from earlier work as cited in PMC6451932.

Molecular target: fibrinogen β peptide (Fgβ) (Homo sapiens) (UniProt P02675)

With SdrG (from UniProt Q9KI13) as the substance, how does the Kd read?
The Kd was 300 nM.
